Patent US20210032365A1 (Chugai, published 2021)
Where two headings read alike, the source gives them in different places.

Experiments:
Serum-derived human C1s [1] = molecular target: T1, Serum-derived human C1s (human, UniProt P09871 16-688); test: SPR Biacore T200, 37 C, antibody captured on protein A/G, pH 7.4, 1.2 mM CaCl2
T1 construct: The analyte was C1s purified from serum; also called hC1s
T1 sequence: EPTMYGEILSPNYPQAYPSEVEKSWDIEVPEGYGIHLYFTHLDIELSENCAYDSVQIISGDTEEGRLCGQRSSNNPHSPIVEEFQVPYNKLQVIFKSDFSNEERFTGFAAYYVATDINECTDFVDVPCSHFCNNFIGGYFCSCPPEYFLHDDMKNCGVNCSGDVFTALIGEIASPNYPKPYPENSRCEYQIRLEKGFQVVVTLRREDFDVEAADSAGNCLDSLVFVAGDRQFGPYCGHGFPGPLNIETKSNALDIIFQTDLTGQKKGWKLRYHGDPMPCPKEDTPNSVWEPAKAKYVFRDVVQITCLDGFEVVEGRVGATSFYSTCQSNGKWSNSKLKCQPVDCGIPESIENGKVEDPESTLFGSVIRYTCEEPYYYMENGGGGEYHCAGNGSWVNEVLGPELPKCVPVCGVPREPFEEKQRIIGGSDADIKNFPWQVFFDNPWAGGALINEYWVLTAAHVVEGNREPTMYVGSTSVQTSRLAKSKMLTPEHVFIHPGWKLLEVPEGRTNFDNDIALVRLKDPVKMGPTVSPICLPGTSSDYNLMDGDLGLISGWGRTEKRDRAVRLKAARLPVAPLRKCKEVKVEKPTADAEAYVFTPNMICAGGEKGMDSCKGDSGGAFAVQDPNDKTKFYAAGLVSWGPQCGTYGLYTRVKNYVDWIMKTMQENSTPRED

Serum-derived human C1s [2] = molecular target: T1, Serum-derived human C1s; test: SPR Biacore T200, 37 C, ratio of dissociation rates pH 5.8 / pH 7.4, 1.2 mM CaCl2
Serum-derived human C1s [3] = molecular target: T1, Serum-derived human C1s; test: SPR Biacore T200, 37 C, antibody captured on protein A/G, pH 5.8, 1.2 mM CaCl2; marked *: not accurately determined, low binding response
Description: (§1) The binding affinity of all histidine-substituted variants at pH 7.4 and pH 5.8 were determined at 37 degrees C. using Biacore T200 instrument (GE Healthcare). Recombinant Protein A/G (Pierce) was immobilized onto all flow cells of a CM4 sensor chip using amine coupling kit (GE Healthcare). Antibodies and analytes were prepared in 7(+) buffer (20 mM ACES, 150 mM NaCl, 1.2 mM CaCl2, 0.05% Tween 20, 0.005% NaN3, pH 7.4) or 5(+) buffer (20 mM ACES, 150 mM NaCl, 1.2 mM CaCl2), 0.05% Tween 20, 0.005% NaN3, pH 5.8). Each antibody was captured onto the sensor surface by protein A/G. Antibody capture levels were aimed at 200 resonance unit (RU). […] Sensor surface was regenerated each cycle with 10 mM Glycine-HCl pH 1.5. […] An additional dissociation phase at pH 5.8 was integrated immediately after the dissociation phase at pH 7.4. This dissociation rate in 5(+) buffer was determined by processing and fitting data using Scrubber 2.0 (BioLogic Software) curve fitting software.

Serum-derived human C1s [4] = molecular target: T1, Serum-derived human C1s; test: SPR Biacore T200, 37 C, antibody captured on protein A/G, C1s at 50 nM, pH 7.4, 1.2 mM CaCl2
Description: (§2) The binding affinity of all histidine-substituted variants at pH 7.4 and pH 5.8 were determined at 37 degrees C. using Biacore T200 instrument (GE Healthcare). Recombinant Protein A/G (Pierce) was immobilized onto all flow cells of a CM4 sensor chip using amine coupling kit (GE Healthcare). Antibodies and analytes were prepared in 7(+) buffer (20 mM ACES, 150 mM NaCl, 1.2 mM CaCl2), 0.05% Tween 20, 0.005% NaN3, pH 7.4) or 5(+) buffer (20 mM ACES, 150 mM NaCl, 1.2 mM CaCl2, 0.05% Tween 20, 0.005% NaN3, pH 5.8). Each antibody was captured onto the sensor surface by protein A/G. Antibody capture levels were aimed at 200 resonance unit (RU). Serum-derived human C1s was injected at 50 nM, followed by dissociation. Sensor surface was regenerated each cycle with 10 mM Glycine-HCl pH 1.5. […] An additional dissociation phase at pH 5.8 was integrated immediately after the dissociation phase at pH 7.4. This dissociation rate in 5(+) buffer was determined by processing and fitting data using Scrubber 2.0 (BioLogic Software) curve fitting software (Table 9).

Serum-derived human C1s [5] = molecular target: T1, Serum-derived human C1s; test: SPR Biacore T200, 37 C, ratio of dissociation rates pH 5.8 / pH 7.4, 1.2 mM CaCl2; remark: listed apart in the source
Description: as §2

Serum-derived human C1s [6] = molecular target: T1, Serum-derived human C1s; test: SPR Biacore T200, 37 C, added dissociation phase at pH 5.8 (1.2 mM CaCl2) straight after that at pH 7.4
Description: as §2

human C1s [7] = molecular target: T2, human C1s (human, UniProt P09871 16-688); test: SPR; koff (5.8+ of 775+): extra dissociation phase at pH 5.8 (1.2 mM Ca) right after the pH 7.4 dissociation, Scrubber fit
T2 construct: Analyte in the Biacore assays; also called hC1s; serum-derived human C1s (CompTech)
T2 sequence: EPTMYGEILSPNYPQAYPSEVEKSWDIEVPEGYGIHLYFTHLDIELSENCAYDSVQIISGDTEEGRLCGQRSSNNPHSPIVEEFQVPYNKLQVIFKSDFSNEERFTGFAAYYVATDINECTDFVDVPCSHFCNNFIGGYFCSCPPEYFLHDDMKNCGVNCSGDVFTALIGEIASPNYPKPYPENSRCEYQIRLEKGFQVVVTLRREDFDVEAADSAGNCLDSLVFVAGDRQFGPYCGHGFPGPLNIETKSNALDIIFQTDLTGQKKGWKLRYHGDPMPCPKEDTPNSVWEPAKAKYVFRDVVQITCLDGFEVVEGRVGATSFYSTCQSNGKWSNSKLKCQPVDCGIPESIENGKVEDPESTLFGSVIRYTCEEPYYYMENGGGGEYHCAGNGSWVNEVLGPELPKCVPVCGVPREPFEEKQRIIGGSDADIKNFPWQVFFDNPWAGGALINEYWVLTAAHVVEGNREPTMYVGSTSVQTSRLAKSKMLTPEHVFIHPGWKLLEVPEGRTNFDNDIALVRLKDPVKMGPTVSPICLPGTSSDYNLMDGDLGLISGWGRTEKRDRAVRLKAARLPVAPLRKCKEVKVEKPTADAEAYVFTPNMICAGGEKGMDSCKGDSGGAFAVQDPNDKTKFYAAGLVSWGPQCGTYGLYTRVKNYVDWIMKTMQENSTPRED
Description: as §1

human C1s [8] = molecular target: T2, human C1s; test: SPR (Biacore T200, 37C), Ab captured on protein A/G, serum C1s 200 and 800 nM; pH 5.8, 1.2 mM Ca
Description: as §1

human C1s [9] = molecular target: T2, human C1s; test: SPR (Biacore T200, 37C), Ab captured on protein A/G, serum C1s 12.5 and 50 nM; pH 7.4, 1.2 mM Ca
Description: as §1

human C1s [10] = molecular target: T2, human C1s; test: SPR; KD at pH 5.8 over KD at pH 7.4, both 1.2 mM Ca
Description: as §1, with “software. […]” for “software.”

B1: IPN92H0286/IPN93L0205-SG136 (antibody, human IgG1, kappa, name in Kabat numbering)
heavy: EVMLVESGGGLVKPGGSLRLSCAASGFTFSNKAMSWVRQAPGKGLEWVATISSGGSHTYYLDSVKHRFTISRDNSKDTLYLQMNSLRAEDTALYYCARLFTGHAMDYWGQGTLVTVSSASTKGPSVFPLAPSSKSTSGGTAALGCLVKDYFPEPVTVSWNSGALTSGVHTFPAVLQSSGLYSLSSVVTVPSSSLGTQTYICNVNHKPSNTKVDKKVEPKSCDKTHTCPPCPAPELRRGPSVFLFPPKPKDTLMISRTPEVTCVVVDVSHEDPEVKFNWYVDGVEVHNAKTKPREEQYNSTYRVVSVLTVLHQDWLNGKEYKCKVSNKGLPSSIEKTISKAKGQPREPQVYTLPPSREEMTKNQVSLTCLVKGFYPSDIAVEWESNGQPENNYKTTPPVLDSDGSFFLYSKLTVDKSRWQQGNVFSCSVMHEALHNHYTQKSLSLSP
light: QIVLTQSPATLSLSPGERATLSCTASSSVSSSRLHWYQQKPGKAPKLWIYSTSNLASGVPSRFSGSGSGTDYTLTISSLQPEDFATYYCHQYHRHPPITFGQGTKLEIKRTVAAPSVFIFPPSDEQLKSGTASVVCLLNNFYPREAKVQWKVDNALQSGNSQESVTEQDSKDCTYSLSSTLTLSKADYEKHKVYACEVTHQGLSSPVTKSFNRGEC
notes: Substitutions are numbered by Kabat
In the case of B1, the Kd (Serum-derived human C1s [1]) is reported as 1.43 nM, the kon (Serum-derived human C1s [1]) is reported as 574000 M⁻¹ s⁻¹ and the “koff (5.8+ of 775+)/koff (7.4+)” value (Serum-derived human C1s [2]) is reported as 16.3. For the same binder, the Kd (Serum-derived human C1s [3]) was 8530 nM, the koff (Serum-derived human C1s [3]) was 0.0237 s⁻¹ and the kon (Serum-derived human C1s [3]) was 2780 M⁻¹ s⁻¹.

B2: C1_IPN009VH2-SG4GK/IPN009VK3-SK1 (antibody, human IgG4 S228P, kappa)
heavy: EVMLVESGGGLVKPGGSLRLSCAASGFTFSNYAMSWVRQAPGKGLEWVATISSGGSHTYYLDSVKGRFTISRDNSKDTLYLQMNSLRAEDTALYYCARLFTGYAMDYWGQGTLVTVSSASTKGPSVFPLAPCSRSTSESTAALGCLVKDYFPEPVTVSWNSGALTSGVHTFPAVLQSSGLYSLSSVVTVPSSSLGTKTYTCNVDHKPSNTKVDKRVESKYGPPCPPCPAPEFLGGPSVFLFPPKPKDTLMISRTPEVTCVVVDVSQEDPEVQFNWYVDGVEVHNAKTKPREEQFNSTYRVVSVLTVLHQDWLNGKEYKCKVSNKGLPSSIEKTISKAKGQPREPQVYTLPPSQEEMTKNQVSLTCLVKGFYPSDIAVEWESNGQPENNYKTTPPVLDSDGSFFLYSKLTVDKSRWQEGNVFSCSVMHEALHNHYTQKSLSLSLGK
light: QIVLTQSPATLSLSPGERATLSCTASSSVSSSYLHWYQQKPGKAPKLWIYSTSNLASGVPSRFSGSGSGTDYTLTISSLQPEDFATYYCHQYYRLPPITFGQGTKLEIKRTVAAPSVFIFPPSDEQLKSGTASVVCLLNNFYPREAKVQWKVDNALQSGNSQESVTEQDSKDSTYSLSSTLTLSKADYEKHKVYACEVTHQGLSSPVTKSFNRGEC
notes: also called IPN009VH2/IPN009VK3; IPN09VH2/IPN09VK3
With B2 the koff (Serum-derived human C1s [4]) was 0.00037 s⁻¹, the kon (Serum-derived human C1s [4]) was 298000 M⁻¹ s⁻¹ and the “koff (5.8+ of 775+)/koff (7.4+)” value (Serum-derived human C1s [5]) was 0.4. The koff (Serum-derived human C1s [6]) was 0.000148 s⁻¹.

B3: C1_IPN009VH2-SG4GK/IPN93L0026-SK1 (antibody, V domains shown)
VH: EVMLVESGGGLVKPGGSLRLSCAASGFTFSNYAMSWVRQAPGKGLEWVATISSGGSHTYYLDSVKGRFTISRDNSKDTLYLQMNSLRAEDTALYYCARLFTGYAMDYWGQGTLVTVSS
VL: QIVLTQSPATLSLSPGERATLSCTASSSVSSSYLHWYQQKPGKAPKLWIYSTSNLASGVPSRFSGSGSGTDYTLTISSLQPEDFATYYCHQYYRLPPHTFGQGTKLEIKR
notes: It is read here as I96H (Kabat) in the VL IPN009VK3
A Kd (Serum-derived human C1s [4]) of 4.28 nM, a koff (Serum-derived human C1s [4]) of 0.0015 s⁻¹ and a kon (Serum-derived human C1s [4]) of 350000 M⁻¹ s⁻¹ were found for B3 in this work. For the same binder, the “koff (5.8+ of 775+)/koff (7.4+)” value (Serum-derived human C1s [5]) was 0.77 and the koff (Serum-derived human C1s [6]) was 0.00115 s⁻¹.

B4: C1_IPN92H0012-SG4GK/IPN009VK3-SK1 (antibody, V domains shown)
VH: EVMLVESGGGLVKPGGSLRLSCAASGFTFSNYAMSWVRQAPGKGLEWVATHSSGGSHTYYLDSVKGRFTISRDNSKDTLYLQMNSLRAEDTALYYCARLFTGYAMDYWGQGTLVTVSS
VL: QIVLTQSPATLSLSPGERATLSCTASSSVSSSYLHWYQQKPGKAPKLWIYSTSNLASGVPSRFSGSGSGTDYTLTISSLQPEDFATYYCHQYYRLPPITFGQGTKLEIKR
notes: Single histidine variant of the VH IPN009VH2, with SG4GK and SK1 constant regions
For B4, the koff (Serum-derived human C1s [4]) was 0.00192 s⁻¹, the kon (Serum-derived human C1s [4]) was 183000 M⁻¹ s⁻¹ and the “koff (5.8+ of 775+)/koff (7.4+)” value (Serum-derived human C1s [5]) was 0.57. For the same binder, the koff (Serum-derived human C1s [6]) was 0.00109 s⁻¹.

B5: IPN92H0281/IPN93L0024-SG136 (antibody, human IgG1, kappa, name in Kabat numbering)
heavy: EVMLVESGGGLVKPGGSLRLSCAASGFTFSNYAMSWVRQAPGKGLEWVATISSGGSKTYELDSVDERFTISRDNSKDTLYLQMNSLRAEDTALYYCARLFTKHAMDYWGQGTLVTVSSASTKGPSVFPLAPSSKSTSGGTAALGCLVKDYFPEPVTVSWNSGALTSGVHTFPAVLQSSGLYSLSSVVTVPSSSLGTQTYICNVNHKPSNTKVDKKVEPKSCDKTHTCPPCPAPELRRGPSVFLFPPKPKDTLMISRTPEVTCVVVDVSHEDPEVKFNWYVDGVEVHNAKTKPREEQYNSTYRVVSVLTVLHQDWLNGKEYKCKVSNKGLPSSIEKTISKAKGQPREPQVYTLPPSREEMTKNQVSLTCLVKGFYPSDIAVEWESNGQPENNYKTTPPVLDSDGSFFLYSKLTVDKSRWQQGNVFSCSVMHEALHNHYTQKSLSLSP
light: QIVLTQSPATLSLSPGERATLSCTASSSVSSSYLHWYQQKPGKAPKLWIYSTSNLASGVPSRFSGSGSGTDYTLTISSLQPEDFATYYCHQYYRLHPITFGQGTKLEIKRTVAAPSVFIFPPSDEQLKSGTASVVCLLNNFYPREAKVQWKVDNALQSGNSQESVTEQDSKDCTYSLSSTLTLSKADYEKHKVYACEVTHQGLSSPVTKSFNRGEC
notes: also called IPN92H0281/IPN93L0024 (lot PPU2047); IPN92H281/IPN93L0024-SG136
A koff (human C1s [7]) of 0.0247 s⁻¹, a Kd (human C1s [8]) of 123 nM and a koff (human C1s [8]) of 0.0267 s⁻¹ were found for B5 in this work. The kon (human C1s [8]) was 217000 M⁻¹ s⁻¹, the Kd (human C1s [9]) was 2.02 nM and the koff (human C1s [9]) was 0.000645 s⁻¹. For the same binder, the “KD (5.8+)/KD (7.4+)” value (human C1s [10]) was 60.9.
